The values that follow are results of earlier work, collected in publication PMC7550760.

The data set deals with His84 (UniProt position 104, ACRVNHVTLSQ). The settings on record: monomeric native-like protein implied; not stated.

In general, pKa refers to the pH at which an ionisable group is half protonated. For the substance “beta2-microglobulin (wild type, full length) (Homo sapiens)”, the pKa is 4.1.
In the case of “beta2-microglobulin deltaN6 variant (Homo sapiens; del1-6)”, the pKa was 5.9.
